In patent US20080058636A1, “METHODS OF MYOCARDIAL IMAGING” (Epix Pharmaceuticals, Inc., priority 2005, published 2008):
Bridge positions count the residues as written; N and C are the ends. Ends that are not written are not given here. GdT = GdDTPA-thiourea

B1: SEQ ID NO: 1 (peptide)
peptide: YHACYQAGCWIW
modifications: disulfide 4-9; not fully specified (C-terminus)
B2: SEQ ID NO: 68 (peptide)
peptide: SWHCFLENHHWMCSDH
modifications: disulfide 4-13 (inferred); also: C-terminus likely amidated (Rink amide resin)
B3: SEQ ID NO: 5 (peptide)
peptide: NWKCWGVVKWECIWA
modifications: disulfide 4-12; also: C-terminus presumably amidated (Rink amide resin)
B4: SEQ ID NO: 108 (peptide)
peptide: YHACYQAGCYIY
modifications: disulfide 4-9; not fully specified (C-terminus)
B5: SEQ ID NO: 64 (peptide)
peptide: TWICSHNDKGWTCGDQ
modifications: disulfide 4-13 (inferred); also: C-terminus likely amidated (Rink amide resin)
B6: SEQ ID NO: 37 (peptide)
peptide: LWNCHGTDANWKCVLN
modifications: disulfide 4-13; also: C-terminus probably amidated (Rink amide resin)
B7: SEQ ID NO: 63 (peptide)
peptide: NWYCSQALDNWSCKLR
modifications: disulfide 4-13; also: C-terminus likely amidated (Rink amide resin)
B8: SEQ ID NO: 39 (peptide)
peptide: GWQCSGDASVWNCDWI
modifications: disulfide 4-13; also: C-terminus probably amidated (Rink amide resin)
B9: SEQ ID NO: 8 (peptide)
peptide: GWQCFGASDWHCTWV
modifications: disulfide 4-12; not fully specified
B10: SEQ ID NO: 9 (peptide)
peptide: TWNCYGVTEWHCYMI
modifications: disulfide 4-12; not fully specified (C-terminus)
B11: SEQ ID NO: 67 (peptide)
peptide: GWSCHSMDMQWHCDFS
modifications: disulfide 4-13 (inferred); also: C-terminus likely amidated (Rink amide resin)
B12: SEQ ID NO: 66 (peptide)
peptide: RWSCVLDADGWVCSDN
modifications: disulfide 4-13 (inferred); also: C-terminus likely amidated (Rink amide resin)
B13: SEQ ID NO: 99 (peptide)
peptide: AKKCWYNDGGHLRCRTL
modifications: disulfide 4-14; not fully specified (C-terminus)
B14: SEQ ID NO: 78 (peptide)
peptide: TWACDLDEYGGWQCYTG
modifications: disulfide 4-14 (inferred); also: C-terminal amide likely (Rink amide resin)
B15: SEQ ID NO: 36 (peptide)
peptide: SWSCGGDHNAWKCQYS
modifications: disulfide 4-13; also: C-terminus probably amidated (Rink amide resin)
B16: SEQ ID NO: 3 (peptide)
peptide: PWWCHEMPSMCFGF
modifications: disulfide 4-11; also: C-terminus probably amidated (Rink amide resin)
B17: SEQ ID NO: 38 (peptide)
peptide: GWSCHGDAADWPCQWS
modifications: disulfide 4-13; also: C-terminus probably amidated (Rink amide resin)
B18: SEQ ID NO: 81 (peptide)
peptide: QWFCEMDEYGKWNCGMM
modifications: disulfide 4-14; not fully specified (C-terminus)
B19: SEQ ID NO: 35 (peptide)
peptide: YWVCGGDHQSWHCSHP
modifications: disulfide 4-13; also: C-terminus probably amidated (Rink amide resin)
B20: SEQ ID NO: 41 (peptide)
peptide: VWACRGGTTNWHCDL
modifications: disulfide 4-13; also: C-terminus probably amidated (Rink amide resin)
B21: SEQ ID NO: 65 (peptide)
peptide: KWECVHTKGEWYCETK
modifications: disulfide 4-13 (inferred); also: C-terminus likely amidated (Rink amide resin)
B22: SEQ ID NO: 6 (peptide)
peptide: TWQCSGNQKWSCEWF
modifications: disulfide 4-12; also: C-terminus probably amidated (Rink amide resin)
B23: SEQ ID NO: 79 (peptide)
peptide: FWTCELDFRQSWYCYDK
modifications: disulfide 4-14 (inferred); not fully specified
B24: Compound ID 1017 (peptide)
chain: KKLWHCYTYFPHHYCVYG
B25: Compound ID 980 (peptide)
chain: GKWHCTTKFPHHYCLYY
B26: Compound ID 981 (peptide)
chain: GYKWHCTTYFPHHYCLYG
B27: Compound ID NO. 1014 (peptide)
chain: KKWHCYTYFPHHYCVYG
modifications: disulfide 5-14 (inferred); also: coupled to ITC-Gd3 (tris-Gd-DOTAGA isothiocyanate), site not given here
B28: Compound ID 1013 (peptide)
chain: GKWHCYTKFPHHYCKYY
B29: Compound ID 1010 (peptide)
chain: GKWHCYTKFPHHYCVYYY
B30: Compound ID 994 (peptide)
peptide: GdT-GQWHCYTYFPHHYCLYGK
modifications: disulfide 5-14 (inferred); not fully specified (residue 18, C-terminus)
B31: Compound ID 991 (peptide)
chain: GKWHCYKYFPHHYCLYG
B32: Compound ID 995 (peptide)
chain: GKWHCYTKFPHHYCLYGK
B33: Compound ID 984 (peptide)
chain: GHKWHCTTYFPHHYCLYG
B34: Compound ID 993 (peptide)
peptide: GdT-GQWHCYTKFPHHYCLYGK
modifications: disulfide 5-14 (inferred); not fully specified (residues 8, 18, C-terminus)
B35: Compound ID 1018 (peptide)
chain: KKYWHCYTYFPHHYCVYG
B36: Compound ID 983 (peptide)
chain: GFKWHCTTYFPHHYCLYG
B37: Compound ID 985 (peptide)
chain: GKWHCYTYFPHHYCLYFK
B38: Compound ID 978 (peptide)
chain: GKWHCYTKFPHHYCVYG
B39: Compound ID 1011 (peptide)
chain: GKWHCYTKFPYHYCVYY
B40: Compound ID 990 (peptide)
chain: GKWYCTTYFPHHYCLYG
B41: Compound ID 1016 (peptide)
chain: KKAWHCYTYFPHHYCVYG
B42: Compound ID 996 (peptide)
chain: GKWHCYTYFPHHYCLYGK
B43: Compound ID 1015 (peptide)
chain: KKGWHCYTYFPHHYCTYG
B44: Compound ID 982 (peptide)
chain: GVKWHCTTYFPHHYCLYG
B45: Compound ID 989 (peptide)
chain: GKWHCYTYFPHHYCLYVK
B46: Compound ID 979 (peptide)
chain: GKWHCYTKFPHHYCVYY

target: human collagen type I (acid soluble, extracted from placenta, Sigma C7774) (human) (UniProt P02452); assay: dried collagen assay
Sequence (P02452 162-1218 limits assumed, chain 1 of 2): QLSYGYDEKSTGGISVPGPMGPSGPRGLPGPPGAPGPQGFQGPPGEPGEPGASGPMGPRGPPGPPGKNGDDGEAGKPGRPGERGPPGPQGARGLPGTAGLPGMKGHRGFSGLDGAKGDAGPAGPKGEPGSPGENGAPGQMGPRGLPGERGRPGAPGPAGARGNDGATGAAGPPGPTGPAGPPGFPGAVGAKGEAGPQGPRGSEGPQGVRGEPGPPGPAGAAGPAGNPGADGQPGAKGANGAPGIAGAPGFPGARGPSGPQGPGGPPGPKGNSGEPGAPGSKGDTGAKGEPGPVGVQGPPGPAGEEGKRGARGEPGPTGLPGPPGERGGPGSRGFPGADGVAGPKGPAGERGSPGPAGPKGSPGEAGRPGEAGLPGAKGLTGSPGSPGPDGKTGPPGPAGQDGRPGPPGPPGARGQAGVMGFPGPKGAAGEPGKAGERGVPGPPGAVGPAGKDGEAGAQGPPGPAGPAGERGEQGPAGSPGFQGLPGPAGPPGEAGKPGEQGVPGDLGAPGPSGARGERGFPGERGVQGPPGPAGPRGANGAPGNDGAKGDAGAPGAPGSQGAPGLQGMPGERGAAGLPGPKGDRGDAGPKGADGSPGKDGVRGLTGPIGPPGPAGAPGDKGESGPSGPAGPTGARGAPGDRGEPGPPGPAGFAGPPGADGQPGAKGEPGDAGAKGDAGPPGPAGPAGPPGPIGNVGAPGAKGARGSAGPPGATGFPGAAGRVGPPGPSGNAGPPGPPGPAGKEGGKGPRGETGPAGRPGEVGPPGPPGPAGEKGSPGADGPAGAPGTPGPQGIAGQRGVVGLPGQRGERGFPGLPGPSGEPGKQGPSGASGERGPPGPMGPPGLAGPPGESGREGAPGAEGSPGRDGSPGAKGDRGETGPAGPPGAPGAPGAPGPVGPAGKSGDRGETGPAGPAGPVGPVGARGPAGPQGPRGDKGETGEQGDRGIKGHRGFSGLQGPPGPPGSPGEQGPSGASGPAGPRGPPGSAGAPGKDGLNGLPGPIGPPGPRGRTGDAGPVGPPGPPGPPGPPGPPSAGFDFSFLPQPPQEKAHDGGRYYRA
Sequence (P08123 80-1119 limits assumed, chain 2 of 2, further chain): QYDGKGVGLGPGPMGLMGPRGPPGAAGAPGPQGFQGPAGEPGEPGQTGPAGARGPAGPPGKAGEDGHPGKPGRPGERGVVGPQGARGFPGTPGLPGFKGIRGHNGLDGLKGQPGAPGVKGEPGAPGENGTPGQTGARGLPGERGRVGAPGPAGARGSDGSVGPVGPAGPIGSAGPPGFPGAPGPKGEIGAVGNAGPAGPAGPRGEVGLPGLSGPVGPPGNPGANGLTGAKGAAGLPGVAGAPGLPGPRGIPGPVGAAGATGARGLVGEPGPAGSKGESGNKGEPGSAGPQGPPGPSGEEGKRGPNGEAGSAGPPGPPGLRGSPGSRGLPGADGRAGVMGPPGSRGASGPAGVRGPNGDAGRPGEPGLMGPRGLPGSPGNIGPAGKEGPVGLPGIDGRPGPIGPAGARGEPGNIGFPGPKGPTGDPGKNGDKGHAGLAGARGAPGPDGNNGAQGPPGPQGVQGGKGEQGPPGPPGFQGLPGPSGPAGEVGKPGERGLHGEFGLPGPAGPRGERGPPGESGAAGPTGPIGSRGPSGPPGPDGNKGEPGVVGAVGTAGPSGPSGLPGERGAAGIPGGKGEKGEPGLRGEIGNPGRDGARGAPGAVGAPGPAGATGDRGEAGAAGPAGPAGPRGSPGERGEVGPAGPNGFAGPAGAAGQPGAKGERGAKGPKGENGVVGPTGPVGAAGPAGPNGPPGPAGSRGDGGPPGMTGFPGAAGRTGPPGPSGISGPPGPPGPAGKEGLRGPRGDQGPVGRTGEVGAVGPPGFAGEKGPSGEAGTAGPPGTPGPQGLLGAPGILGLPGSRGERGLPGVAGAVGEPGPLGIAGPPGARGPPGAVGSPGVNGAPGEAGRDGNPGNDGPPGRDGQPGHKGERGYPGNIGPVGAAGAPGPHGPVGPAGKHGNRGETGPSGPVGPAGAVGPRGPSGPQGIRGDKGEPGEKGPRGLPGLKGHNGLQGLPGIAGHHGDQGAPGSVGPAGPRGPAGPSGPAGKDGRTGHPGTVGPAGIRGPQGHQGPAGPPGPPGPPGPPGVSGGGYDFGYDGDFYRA

| Dried Human Collagen Binding | % Collagen Binding | Binder |
| --- | --- | --- |
| 56% |  | B1 |
| 5% |  | B2 |
| 24% |  | B3 |
|  | 5% | B4 |
| 8% |  | B5 |
| 7% |  | B6 |
| 8% |  | B7 |
| 6% |  | B8 |
| 9% |  | B9 |
| 7% |  | B10 |
| 5% |  | B11 |
| 6% |  | B12 |
| 3% |  | B13 |
| 8% |  | B14 |
| 7% |  | B15 |
| 2% |  | B16 |
| 6% |  | B17 |
| 3% |  | B18 |
| 8% |  | B19 |
| 1% |  | B20 |
| 7% |  | B21 |
| 20% |  | B22 |
| 8% |  | B23 |

target: human collagen type I (acid soluble, extracted from placenta, Sigma C7774) (human) (UniProt P02452); assay: dried collagen assay, 5 uM each

| Human binding | Binder |
| --- | --- |
| 25% | B24 |
| 85% | B25 |
| 73% | B26 |
| 72% | B27 |
| 81% | B28 |
| 92% | B29 |
| 86% | B30 |
| 23% | B31 |
| 51% | B32 |
| 67% | B33 |
| 75% | B34 |
| 53% | B35 |
| 58% | B36 |
| 56% | B37 |
| 64% | B38 |
| 94% | B39 |
| 59% | B40 |
| 48% | B41 |
| 76% | B42 |
| 29% | B43 |
| 40% | B44 |
| 67% | B45 |
| 87% | B46 |

target: rat collagen (acid soluble, type I, rat tail, Upstate 08-115) (rat) (UniProt P02454); assay: dried collagen assay, 5 uM each
Sequence (P02454 152-1207, chain 1 of 2): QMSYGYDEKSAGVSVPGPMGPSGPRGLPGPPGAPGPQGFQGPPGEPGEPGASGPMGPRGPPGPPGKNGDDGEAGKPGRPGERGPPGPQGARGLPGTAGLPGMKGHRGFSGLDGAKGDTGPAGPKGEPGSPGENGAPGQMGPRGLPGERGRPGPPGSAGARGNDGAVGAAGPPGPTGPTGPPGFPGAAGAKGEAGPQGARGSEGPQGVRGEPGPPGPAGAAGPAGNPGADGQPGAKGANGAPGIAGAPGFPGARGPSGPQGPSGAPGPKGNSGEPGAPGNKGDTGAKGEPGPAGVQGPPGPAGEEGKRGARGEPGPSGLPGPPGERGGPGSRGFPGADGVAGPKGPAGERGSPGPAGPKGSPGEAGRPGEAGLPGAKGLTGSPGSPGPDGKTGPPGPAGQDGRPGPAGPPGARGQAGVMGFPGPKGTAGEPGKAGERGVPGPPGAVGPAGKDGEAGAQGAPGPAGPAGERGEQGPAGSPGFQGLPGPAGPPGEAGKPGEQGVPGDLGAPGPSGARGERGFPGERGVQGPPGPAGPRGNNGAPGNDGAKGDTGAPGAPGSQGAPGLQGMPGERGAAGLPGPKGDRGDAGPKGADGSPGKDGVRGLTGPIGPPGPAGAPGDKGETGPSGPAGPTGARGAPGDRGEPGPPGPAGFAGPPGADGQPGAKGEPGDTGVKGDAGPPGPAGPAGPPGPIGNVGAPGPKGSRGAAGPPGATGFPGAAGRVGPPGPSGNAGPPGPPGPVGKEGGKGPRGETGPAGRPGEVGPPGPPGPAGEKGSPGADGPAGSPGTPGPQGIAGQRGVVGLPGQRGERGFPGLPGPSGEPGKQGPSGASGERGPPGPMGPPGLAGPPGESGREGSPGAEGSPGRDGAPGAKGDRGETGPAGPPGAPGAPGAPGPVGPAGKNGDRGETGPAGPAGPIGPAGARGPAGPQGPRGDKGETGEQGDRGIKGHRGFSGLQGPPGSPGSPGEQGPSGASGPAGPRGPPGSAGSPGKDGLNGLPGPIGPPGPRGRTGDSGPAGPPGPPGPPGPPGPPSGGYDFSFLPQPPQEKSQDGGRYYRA
Sequence (P02466 86-1125, chain 2 of 2, further chain): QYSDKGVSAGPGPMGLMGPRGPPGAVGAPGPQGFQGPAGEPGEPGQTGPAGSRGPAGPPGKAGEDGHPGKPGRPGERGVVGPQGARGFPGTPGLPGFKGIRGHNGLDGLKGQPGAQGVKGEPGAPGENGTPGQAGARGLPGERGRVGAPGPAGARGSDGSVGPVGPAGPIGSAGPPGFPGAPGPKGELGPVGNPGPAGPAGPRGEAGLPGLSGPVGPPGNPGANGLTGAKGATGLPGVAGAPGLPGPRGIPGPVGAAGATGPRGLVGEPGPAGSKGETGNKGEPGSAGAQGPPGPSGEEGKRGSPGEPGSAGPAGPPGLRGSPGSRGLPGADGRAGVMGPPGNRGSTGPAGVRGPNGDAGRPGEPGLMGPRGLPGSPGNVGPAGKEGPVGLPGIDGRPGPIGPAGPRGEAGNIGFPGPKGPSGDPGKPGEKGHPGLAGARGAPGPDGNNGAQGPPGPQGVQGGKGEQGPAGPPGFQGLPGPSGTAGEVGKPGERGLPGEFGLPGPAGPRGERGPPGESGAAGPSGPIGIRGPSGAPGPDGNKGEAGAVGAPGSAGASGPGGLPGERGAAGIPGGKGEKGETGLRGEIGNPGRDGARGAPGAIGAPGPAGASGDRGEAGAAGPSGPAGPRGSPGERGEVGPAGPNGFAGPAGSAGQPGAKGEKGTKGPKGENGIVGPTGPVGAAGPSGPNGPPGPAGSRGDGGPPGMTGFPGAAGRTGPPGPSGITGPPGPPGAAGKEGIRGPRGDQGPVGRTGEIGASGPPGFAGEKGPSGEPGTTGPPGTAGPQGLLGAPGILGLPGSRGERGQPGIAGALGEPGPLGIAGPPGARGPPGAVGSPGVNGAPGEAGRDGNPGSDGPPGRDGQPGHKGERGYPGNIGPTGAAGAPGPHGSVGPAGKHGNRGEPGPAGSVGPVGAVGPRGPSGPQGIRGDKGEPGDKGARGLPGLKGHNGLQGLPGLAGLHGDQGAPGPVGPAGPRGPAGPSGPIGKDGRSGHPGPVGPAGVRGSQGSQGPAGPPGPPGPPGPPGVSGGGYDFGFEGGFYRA

| Rat binding | Binder |
| --- | --- |
| 18% | B24 |
| 80% | B25 |
| 81% | B26 |
| 61% | B27 |
| 88% | B28 |
| 89% | B29 |
| 84% | B30 |
| 11% | B31 |
| 42% | B32 |
| 69% | B33 |
| 70% | B34 |
| 55% | B35 |
| 59% | B36 |
| 68% | B37 |
| 66% | B38 |
| 93% | B39 |
| 62% | B40 |
| 50% | B41 |
| 67% | B42 |
| 30% | B43 |
| 47% | B44 |
| 74% | B45 |
| 86% | B46 |
